Data: patent US20230181756A1 (Novartis, published 2023)

T1: human CCR7 (human, UniProt P32248 25-378)
T1 construct: The assay field tells which; also called hCCR7; NIH3T3.hCCR7
T1 sequence: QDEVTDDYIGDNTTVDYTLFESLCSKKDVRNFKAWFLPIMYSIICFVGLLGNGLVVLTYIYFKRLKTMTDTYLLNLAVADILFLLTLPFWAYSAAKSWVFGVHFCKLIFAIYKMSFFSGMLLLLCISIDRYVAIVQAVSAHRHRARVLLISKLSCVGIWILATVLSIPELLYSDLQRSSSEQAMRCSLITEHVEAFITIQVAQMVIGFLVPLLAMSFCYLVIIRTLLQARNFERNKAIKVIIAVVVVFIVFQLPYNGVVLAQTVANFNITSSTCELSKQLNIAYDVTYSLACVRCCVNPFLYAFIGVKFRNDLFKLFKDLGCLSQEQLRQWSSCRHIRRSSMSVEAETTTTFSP


Tests used:
human CCR7 [1] = biological target: T1, human CCR7; assay: FACS titration, human CD4+ T cells (receptor density <2,000)
human CCR7 [2] = biological target: T1, human CCR7; assay: cell-based or functional assay
human CCR7 [3] = biological target: T1, human CCR7; assay: cell-based or functional assay; remark: listed apart in the source
human CCR7 [4] = biological target: T1, human CCR7; assay: FACS binding on CCR7 expressing cells, against the unconjugated antibody
human CCR7 [5] = biological target: T1, human CCR7; assay: cell-based or functional assay; remark: listed apart in the source

Binder	difference of geometric mean fluorescence intensity from the unconjugated antibody (human CCR7 [4]) [%]	pgADC cytotoxic assay, Anti-mFc.MMAF, AMAX (%) (human CCR7 [5])	pgADC cytotoxic assay, Anti-mFc.MMAF, IC50 (human CCR7 [5]) [nM]	pgADC cytotoxic assay, Fab-ZAP, AMAX (%) (human CCR7 [5])	pgADC cytotoxic assay, Fab-ZAP, IC50 (human CCR7 [5]) [nM]	other results
Humanized 684E12 hIgG1 DAPA CysMab (antibody, V domains shown, also called Humanized CysMab.DAPA antibody 684E12) VH: EVQLVESGGGLVKPGGSLRLSCAASGFTFSNFAMSWVRQAPGKGLEWVSTISTGGTYTYYPDSVKGRFTISRDNAKNSLYLQMNSLRAEDTAVYYCARRGYSGVDKWGQGTTVTVSS VL: DVVMTQSPLSLPVTLGQPASISCKSGQSLLDSTGKTYLNWFLQRPGQSPRRLIYLVSKLDSGVPDRFSGSGSGTDFTLKISRVEAEDVGVYYCWQGTHFPQTFGGGTKLEIKR						EC50 (human CCR7 [1]): ~7 nM
674J13.CysMab.DAPA.AURIX2 (antibody, human IgG1, kappa, V domains shown, DAR LC 0.03; AURIX2 on engineered cysteines, DAR HC 3.93, also called 674J13.DAPA.AURIX2) VH: DVQLQESGPGLVKPSQTLSLTCTVSGYSITSGYSWHWIRQHPGKGLEWMAHIHSSGSTNYNPSLKSRITISRDTSKNQFSLKLSSVTAADTAVYYCARGGVQAFAYWGQGTLVTVSS VL: EIVLTQSPATLSASPGERVTMSCSASSSVIYMHWYQQKPGQAPRRWIYDTSKLASGVPARFSGSGSGTDYTLTISSMEPEDAAVYYCQQWSSNPLTFGQGTKLEIKR	≤ 20					ADC activity in cell viability assay; IC50 (nM); DEL cells (human CCR7 [2]): 0.117 nM; ADC activity in cell viability assay; IC50 (nM); KE97 cells (human CCR7 [2]): 0.0658 nM; ADC activity in cell viability assay; IC50 (nM); CML-T1 cells (CCR7 receptor levels ~29,000) (human CCR7 [3]): 3.78 nM; ADC activity in cell viability assay; IC50 (nM); DEL cells (CCR7 receptor levels ~100,000) (human CCR7 [3]): 0.242 nM; ADC activity in cell viability assay; IC50 (nM); KE97 cells (CCR7 receptor levels ~100,000) (human CCR7 [3]): 0.102 nM; ADC activity in cell viability assay; IC50 (nM); SR786 cells (CCR7 receptor levels ~28,000) (human CCR7 [3]): 2.74 nM
Parental 684E12 (antibody, IgG1, V domains shown) VH: EVHLVESGGGLVKPGGSLKLSCAASGFTFSNFAMSWVRQTPEKRLEWVATISTGGTYTYYPDSVKGRFTISRDNAKKTLYLQMSSLRSEDTAMYYCTRRGYDGVDKWGQGTTLTVSS VL: not shown		80	0.214	33	2.6	
684E12.SMCC.DM1 (antibody, V domains shown, SMCC-DM1 on lysines of the antibody, DAR 2.6, also called parental 684E12.SMCC.DM1) VH: EVHLVESGGGLVKPGGSLKLSCAASGFTFSNFAMSWVRQTPEKRLEWVATISTGGTYTYYPDSVKGRFTISRDNAKKTLYLQMSSLRSEDTAMYYCTRRGYDGVDKWGQGTTLTVSS VL: not shown	≤ 20					
Parental 121G12 (antibody, V domains shown) VH: EVQLVESGGGLVKPGGSLKLSCAASGFTFSTYAMSWVRQTPEKRLEWVATISDGGSYSYYPDNVKGRFTISRDNAKNNLYLQMSHLKSEDTAMYYCARRGSRYEEYYVMDYWGQGTSVTVSS VL: DIVLTQSPATLSVTPGDSVSLSCRASQSISNNLHWYQQKSHESPKLLIKYASQSISGIPSRFSGSGSGTDFTLSINSVETEDFGMYFCQQSNSWLTFGAGTKLGLK		104	0.055	43	0.064	
